Laboratory results: IntAct's records for PubMed 15555586

B1: Suppressor of kinetochore protein 1 (Schizosaccharomyces pombe (strain ATCC 38366 / 972)), Q9Y709 (parent)
chain: MSKIKLISSDNEEFVVDQLIAERSMLIKNMLEDVGEINVPIPLPNVSSNVLRKVLEWCEHHKNDLYSGTEEESDIRLKKSTDIDEWDRKFMAVDQEMLFEIVLASNYLDIKPLLDTGCKTVANMIRGKSPEDIRKTFNIPNDFTPEEEEQIRKENEWAEDR
partner: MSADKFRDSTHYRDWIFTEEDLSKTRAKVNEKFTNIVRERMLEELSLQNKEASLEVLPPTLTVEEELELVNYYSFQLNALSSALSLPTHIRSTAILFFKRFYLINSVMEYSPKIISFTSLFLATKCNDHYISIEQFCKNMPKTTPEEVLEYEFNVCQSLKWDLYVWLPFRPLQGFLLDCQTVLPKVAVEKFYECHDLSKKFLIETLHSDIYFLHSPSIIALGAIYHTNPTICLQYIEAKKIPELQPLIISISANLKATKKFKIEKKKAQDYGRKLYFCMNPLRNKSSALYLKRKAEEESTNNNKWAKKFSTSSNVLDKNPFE

Variants of: B1
Conditions: with cgm2_schpo mcs2, P36613

Variant | effect of a mutation on the interaction
I139N | decreasing interaction
